Laboratory results: US20170319648A1 (BAO KANG BIOMEDICAL HEALTHCARE, published 2017)
Positions of bridges follow the written chain, without caps; N, C: chain ends. Non-standard residues stand in square brackets, D forms with d. No end group written: not given here. hCys = N[C@@H](CCS)C(=O)O

T1: TEAD
T1 chain: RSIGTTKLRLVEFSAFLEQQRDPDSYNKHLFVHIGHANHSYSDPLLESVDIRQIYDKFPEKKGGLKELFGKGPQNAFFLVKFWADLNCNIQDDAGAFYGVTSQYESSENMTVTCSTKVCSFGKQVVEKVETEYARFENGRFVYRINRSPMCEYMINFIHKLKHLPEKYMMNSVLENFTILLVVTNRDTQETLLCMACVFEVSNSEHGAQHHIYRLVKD


Molecular target: T1, TEAD
Assay: IC50 for TEAD binding; method not named in the example (TR-FRET test is the filing's screening method)

Row | IC50 | Binder
1 | 28 nM | VPMCLRKLPESFCHPPE (disulfide 4-13) [polypeptide of SEQ ID NO.: 8 (VPMCLRKLPESFCHPPE)]
2 | 25 nM | VPM[hCys]LRKLPCSFCDPPE (disulfide 4-13) [polypeptide of SEQ ID NO.: 9 (VPM(Hcy)LRKLPCSFCDPPE)]
